Data on one molecule can be found in patent US20250019439A1 (Adimab, published 2025).

Holding throughout (experiment): BLI; tip anti-CD3 bsIgG, solution ADI-34134 IgG
Background: In BLI a coated tip is dipped into the sample, and binding shifts an interference pattern.

The target in one assay is T1, ADI-26913 anti-CD3 bsIgG.
T1 construct: anti-HER2 IgG with one Fab arm replaced by the anti-CD3 scFv (printed 'Vx-VH', read as VL-VH); S354C and Y349C mutations; also called anti-CD3 bsIgG (ADI-26913 scFv); not shown: scFv linker; anti-HER2 Fab arm (heavy and light chain); hinge and Fc with S354C/Y349C
T1 sequence (VH, as listed by the source limits assumed, chain 1 of 2): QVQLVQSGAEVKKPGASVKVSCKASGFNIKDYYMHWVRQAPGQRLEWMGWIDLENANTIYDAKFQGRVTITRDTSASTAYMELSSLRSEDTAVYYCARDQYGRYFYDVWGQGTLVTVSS
T1 sequence (VL, as listed by the source limits assumed, chain 2 of 2): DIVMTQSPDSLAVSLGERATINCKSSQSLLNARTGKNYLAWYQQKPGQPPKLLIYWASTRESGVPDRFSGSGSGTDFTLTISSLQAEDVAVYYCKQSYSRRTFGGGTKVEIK
The procedure: (§1) ForteBio affinity measurements were performed generally as previously described (Estep et al., MAbs. 2013 5(2):270-8). Briefly, ForteBio affinity measurements were performed by loading antibody IgG or Fabs on-line onto AHC sensors. Sensors were equilibrated off-line in assay buffer for 30 minutes and then monitored on-line for 60 seconds for baseline establishment. For avid binding measurement, sensors with loaded antibodies were exposed to IgG or Fab solutions for 3 minutes, afterwards they were transferred to assay buffer for 3 minutes for off-rate measurement. Kinetics data were fit using a 1:1 binding model in the data analysis software provided by ForteBio to obtain equilibrium dissociation constant (KD=koff/kₒₙ) values. In each column, tip-immobilized antibodies are listed first and solution antibodies second.
(§2) Additional analysis was conducted using bispecific antibody formats incorporating anti-CD3 antibody variable domains. Bispecific antibodies were prepared using standard IgG formats (bsIgG) with replacement of Fab arms with anti-CD3 scFvs in Vx-VH orientation and with S354C and Y349C mutations for disulfide stabilization. Antibodies used for Fab arm replacement were anti-HER2 IgG antibodies, with one Fab arm from each replaced by a scFv corresponding to a different anti-CD3 antibody. […] In each column, tip-immobilized antibodies are listed first and solution antibodies second. Anti-CD3 antibodies associated with incorporated scFvs are listed by antibody number.

The target of the next assay is T2, ADI-22523 anti-CD3 bsIgG (In the assayed molecule VL and VH are joined as one scFv (printed 'Vx-VH' orientation) by an undisclosed linker and fused to an Fc, paired with an anti-HER2 half-IgG. They are given here as two …).
T2 construct: anti-HER2 IgG with one Fab arm replaced by the anti-CD3 scFv (printed 'Vx-VH', read as VL-VH); S354C and Y349C mutations; not shown: scFv linker between VL and VH; anti-HER2 heavy and light chains; hinge and Fc with S354C/Y349C
T2 sequence (VH, as listed by the source limits assumed, chain 1 of 2): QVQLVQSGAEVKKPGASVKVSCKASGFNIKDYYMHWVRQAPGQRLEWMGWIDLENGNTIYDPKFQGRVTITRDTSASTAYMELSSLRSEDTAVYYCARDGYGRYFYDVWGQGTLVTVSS
T2 sequence (VL, as listed by the source limits assumed, chain 2 of 2): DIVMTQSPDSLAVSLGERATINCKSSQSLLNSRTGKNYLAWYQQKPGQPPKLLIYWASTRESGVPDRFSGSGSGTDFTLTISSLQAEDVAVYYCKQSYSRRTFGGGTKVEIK
The method, then:
as §1, §2

A further assay deals with T3, ADI-26927 anti-CD3 bsIgG.
T3 construct: anti-HER2 IgG with one Fab arm replaced by the anti-CD3 scFv (printed 'Vx-VH', read as VL-VH); S354C and Y349C mutations; also called anti-CD3 bsIgG (ADI-26927 scFv); not shown: scFv linker; anti-HER2 Fab arm (heavy and light chain); hinge and Fc with S354C/Y349C
T3 sequence (VH, as listed by the source limits assumed, chain 1 of 2): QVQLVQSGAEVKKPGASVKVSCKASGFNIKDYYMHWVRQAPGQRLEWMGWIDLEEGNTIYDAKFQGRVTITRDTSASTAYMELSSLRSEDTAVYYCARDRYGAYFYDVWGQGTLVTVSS
T3 sequence (VL, as listed by the source limits assumed, chain 2 of 2): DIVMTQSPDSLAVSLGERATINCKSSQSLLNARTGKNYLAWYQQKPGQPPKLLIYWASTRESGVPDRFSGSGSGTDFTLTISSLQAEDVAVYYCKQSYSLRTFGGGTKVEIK
The method, then: as §1, §2

A further assay has as its target T4, ADI-26928 anti-CD3 bsIgG.
T4 construct: anti-HER2 IgG with one Fab arm replaced by the anti-CD3 scFv (printed 'Vx-VH', read as VL-VH); S354C and Y349C mutations; also called anti-CD3 bsIgG (ADI-26928 scFv); not shown: scFv linker; anti-HER2 Fab arm (heavy and light chain); hinge and Fc with S354C/Y349C
The method, then:
as §1, §2

The target of a further assay is T5, CTL-19613 anti-CD3 bsIgG (In the assay the two domains were one scFv (VL-VH orientation, linker not given). It replaced one Fab arm of an anti-HER2 IgG; S354C and Y349C mutations are stated for disulfide stabilization.).
T5 construct: anti-HER2 IgG with one Fab arm replaced by the anti-CD3 scFv (printed 'Vx-VH', read as VL-VH); S354C and Y349C mutations; also called anti-CD3 bsIgG (CTL-19613 scFv); not shown: scFv linker between VL and VH; anti-HER2 heavy and light chains of the other arm; hinge and Fc (with S354C / Y349C)
The method, then:
as §1, §2

The target of another assay is T6, ADI-26916 anti-CD3 bsIgG.
T6 construct: anti-HER2 IgG with one Fab arm replaced by the anti-CD3 scFv (printed 'Vx-VH', read as VL-VH); S354C and Y349C mutations; also called anti-CD3 bsIgG (ADI-26916 scFv); not shown: scFv linker; anti-HER2 Fab arm (heavy and light chain); hinge and Fc with S354C/Y349C; copies: 1 + 1
T6 sequence (VH, as listed by the source limits assumed, chain 1 of 2): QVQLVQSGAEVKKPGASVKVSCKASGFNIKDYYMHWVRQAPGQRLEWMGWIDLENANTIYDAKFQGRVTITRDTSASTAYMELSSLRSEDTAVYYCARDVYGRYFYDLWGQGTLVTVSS
The method, then: as §1, §2

T4 sequence (VH, as listed by the source limits assumed, chain 1 of 2): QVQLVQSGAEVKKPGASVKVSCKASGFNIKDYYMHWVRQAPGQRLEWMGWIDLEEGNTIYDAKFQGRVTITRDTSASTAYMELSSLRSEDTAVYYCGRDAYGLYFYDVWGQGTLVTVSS

B1: ADI-34134 IgG (antibody, V domains shown)
VH: QVQLVQSGAEVKKPGSSVKVSCKASGGTFSSYAISWVRQAPGQGLEWMGGIIPIFGTANYAQKFQGRVTITADESTSTAYMELSSLRSEDTAVYYCARGAPNYYGSGGYDDGWFDPWGQGTLVTVSS
VL: EIVLTQSPGTLSLSPGERATLSCRASQSVSSDYLAWYQQKPGQAPRLLIYGASSRATGIPDRFSGSGSGTDFTLTISRLEPEDFAVYYCQQFGRVPTFGGGTKVEIK
For the molecule B1, the equilibrium dissociation constant (Kd) in the assay with ADI-26913 anti-CD3 bsIgG was determined as 0.98 nM; in the assay with ADI-22523 anti-CD3 bsIgG, 0.47 nM; with ADI-26927 anti-CD3 bsIgG, 1.02 nM; with ADI-26928 anti-CD3 bsIgG, 1.39 nM; with ADI-26916 anti-CD3 bsIgG, 1.94 nM. Further, the binding result with CTL-19613 anti-CD3 bsIgG is reported as “no binding”.

The term Kd denotes the constant that tells how readily two partners part at equilibrium. A high value points to weaker binding.
